Reference: the supplement of paper PMC7125110
± gives the standard error. Fewer inactive variants are shown than the library holds.

B1: glmS ribozyme (parent)
chain: AUAAAAGCGCCAGAACUACAGAAAUGUAGUUGACGAGGAGGAGGUUUAUCGAAUUUUCGGCGGAUGCCUCCAAA

What was measured:
Conditions in all cases: with glucosamine-6-phosphate
glucosamine-6-phosphate [1] = variants of: B1; assay: self-cleavage kobs at 640 uM GlcN6P; higher = faster cleavage; RNA array
Summary of the method: (§1)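 kcat and KM were obtained from weighted Michaelis–Menten fits across concentrations of kobs values. Those came from one- or two-exponential decay fits to per-tile medians normalised to baseline and to non-cleaving reference variants. The variants were barcoded ribozymes transcribed in situ by E. coli RNA polymerase on sequenced MiSeq chips and tracked through a hybridised Cy3 probe at 37 °C, with 40 μM to 10 mM glucosamine-6-phosphate in HEPES/KCl/Mg(OAc)2 buffer flowed in.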

glucosamine-6-phosphate [2] = variants of: B1; assay: self-cleavage kobs at 2500 uM GlcN6P; higher = faster cleavage; RNA array
Summary of the method: as §1

glucosamine-6-phosphate [3] = variants of: B1; assay: self-cleavage kobs at 10000 uM GlcN6P; higher = faster cleavage; RNA array
Summary of the method: as §1

Row | Variant | self-cleavage kobs at 640 uM GlcN6P (glucosamine-6-phosphate [1]) [s⁻¹] | self-cleavage kobs at 2500 uM GlcN6P (glucosamine-6-phosphate [2]) [s⁻¹] | self-cleavage kobs at 10000 uM GlcN6P (glucosamine-6-phosphate [3]) [s⁻¹]
1 | G13A G40A G62A | < 1e-05 | < 1e-05 | 
2 | G29U G35C A52G | < 1e-05 | < 1e-05 | 
3 | C11U U30C C71A | 0.000112 ± 2.4e-05 | 6.85e-05 ± 2.1e-05 | 
4 | G29C U55G | 0.000107 ± 1.3e-05 | 0.000164 ± 2.5e-05 | 0.000757 ± 9.6e-05
5 | G29U A53C | 0.00015 ± 7.4e-05 | 0.00118 ± 0.00032 | 0.000874 ± 0.00028
6 | G44A C61A C71U | < 1e-05 | < 1e-05 | 
7 | G35U U57G C71A | < 1e-05 | < 1e-05 | 
8 | C8U U54C U55G | < 1e-05 |  | 
9 | A33U U57G C68G | 0.000105 ± 2.8e-05 | 0.000205 ± 7e-05 | 
10 | G13U G51C G62C | < 1e-05 |  | 
11 | C8A C50G C58G G62A | 0.000111 ± 3.2e-05 | 0.000345 ± 8.6e-05 | 
12 | G7A G9C A33U G66C | < 1e-05 | < 1e-05 | 
13 | A15C U30C U31G U69G | 0.00017 ± 4.8e-05 |  | 
14 | C10G A15G A39U G60C C68A | < 1e-05 | < 1e-05 | 
15 | C8U G13U U47C G51C | < 1e-05 |  | 
16 | G13C A48G U49C | < 1e-05 |  | 
17 | C34U A39U | < 1e-05 | < 1e-05 | < 1e-05
18 | A14G G43U G63U C70A | < 1e-05 | < 1e-05 | 
19 | C11G C16A C50G U65G | 0.000148 ± 5.2e-05 |  | 
20 | A14G C34U | < 1e-05 |  | < 1e-05
21 | C34U G43U G59A G62C C67A | < 1e-05 | < 1e-05 | 
22 | A14C U49G C68U | < 1e-05 |  | 
23 | C11G G41U A48G A52C | < 1e-05 | < 1e-05 | 
24 | A14U A15U G29C C67U C70G | 0.00266 ± 0.001 |  | 
25 | A33U G35U U54A | < 1e-05 |  | < 1e-05
26 | A6U G7C G13U A36C | < 1e-05 |  | 
27 | U30G G41U C50A | < 1e-05 | < 1e-05 | 
28 | A36U C61G C70A | 0.000101 ± 3e-05 |  | 
29 | G9A G37A U56G | < 1e-05 |  | 
30 | C11A A14G G43A U45G | 4.76e-05 ± 2e-05 |  | 
